The text below walks through data of publication PMC11499381.

The target of assay [1] is N-V_(1–154)-CTR/N-V_(155–238)-RAMP1 (human) (UniProt O60894).
The target of assay [2] is CTR-C-V_(1–154)/RAMP1 (human) (UniProt O60894).
For assay [3], the target named is CTR/N-V_(155–238)-RAMP1 (human) (UniProt O60894).
Assay [4] addresses CTR-C-V_(1–154)/RAMP1-C-V_(155–238) (human) (UniProt O60894).
Assay [5] deals with N-V_(1–154)-CTR/RAMP1 (human) (UniProt O60894).
The target in assay [6] is WT CTR/RAMP1 (AMY1 receptor) (human) (UniProt O60894).
Assay [7] concerns the target CTR/RAMP1-C-V_(155–238) (human) (UniProt O60894).

No end group written: not given here.

WT CTR (human), sequence (P30988 25-474): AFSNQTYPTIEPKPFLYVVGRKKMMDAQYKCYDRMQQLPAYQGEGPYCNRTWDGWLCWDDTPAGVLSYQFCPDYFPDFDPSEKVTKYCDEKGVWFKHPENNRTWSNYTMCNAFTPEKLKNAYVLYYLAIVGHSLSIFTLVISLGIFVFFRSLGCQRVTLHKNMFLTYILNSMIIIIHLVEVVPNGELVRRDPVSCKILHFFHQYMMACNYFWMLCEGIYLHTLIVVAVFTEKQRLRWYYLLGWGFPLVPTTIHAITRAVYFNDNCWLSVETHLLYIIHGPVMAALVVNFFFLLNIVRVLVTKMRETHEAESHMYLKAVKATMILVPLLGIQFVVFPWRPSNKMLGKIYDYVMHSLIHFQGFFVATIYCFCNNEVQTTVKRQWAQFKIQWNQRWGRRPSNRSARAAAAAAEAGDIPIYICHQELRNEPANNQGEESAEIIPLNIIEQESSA

“Human αCGRP (from UniProt P06881 83-119) (peptide)”: the Emax of h-αCGRP-stimulated cAMP production, Cos7 cells, percent of the matched WT curve was 77.3 % of WT in assay [1]; 81.2 % of WT in assay [2]; 74.9 % of WT in [3]; 71.5 % of WT in assay [4]; 74 % of WT in assay [5]; 83.5 % of WT in assay [7]. The pEC50 of h-αCGRP-stimulated cAMP production, Cos7 cells, 15 min in assay [1] worked out at 8.83 pEC50; in assay [2], 8.41 pEC50; in assay [3], 8.16 pEC50; in assay [4], 7.52 pEC50; in [5] it was 8.92 pEC50; in assay [7], 8.62 pEC50. For the same molecule, in the assay with WT CTR (human), the pEC50 of h-αCGRP-stimulated cAMP production, Cos7 cells, 15 min, CTR without RAMP1 stood at 6.63 pEC50. The pEC50 of h-αCGRP-stimulated cAMP production, Cos7 cells, 15 min (WT control of the N-terminal series) in assay [6] was 9.1 pEC50.
For CGNLSTCMLGTYTQDFNKFHTFPQTAIGVGAP (ends and bridges not checked; cysteine pairing not given here) [Human calcitonin], the figures for the fold loss of calcitonin potency (cAMP production) against WT CTR, Cos7 cells in the assay with N-V_(1–154)-CTR (human) and with CTR-C-V_(1–154) (human) were 10 fold and 3 fold, respectively.
